Test: Hydrolysis kinetics of wild-type Rhodococcus EGC using 2,4-dinitrophenyl lactoside as the substrate
Assay type: biochemical
Experimental: FIG. 18 illustrates a Michaelis-Menten curve for wild-type Rhodococcus EGC using 2,4-dinitrophenyl lactoside as the substrate.
FIGS. 19A-19C illustrate variation of kcat, Km, and kcat/Km with increasing detergent concentration for wild-type Rhodococcus EGC.
FIG. 20 illustrates pH rate profile for wild-type Rhodococcus EGC.
Using 2,4-dinitrophenyl lactoside as a substrate, the Rhodococcus M-777 EGC enzyme has a Km of approximately 2 mM, and a kcat of 90 min-1 (FIG. 18). The dependence of the activity on detergent concentration was also investigated. […] The dependence of kcat/Km on detergent concentration leveled off at concentrations greater than 0.5%; increasing the detergent concentration caused a steady increase in both kcat and Km up to a concentration of 1% (FIGS. 19A-C). The pH dependence of the hydrolysis activity was also investigated. As expected, the maximal kcat/Km is observed around pH 5 (FIG. 20).

[1] = substrate 2,4-dinitrophenyl lactoside

B1: Rhodococcus M-777 EGC: wild-type endoglycoceramidase from Rhodococcus sp. M-777, GenBank AAB67050, SEQ ID NO:3 (protein, listed as Rhodococcus sp.)
chain: MRRTRLVSLIVTGSLVFGGGVAAAQSSLAASGSGSGSGTALTPSYLKDDDGRSLILRGFNTASSAKSAPDGMPQFTEADLAREYADMGTNFVRFLISWRSVEPAPGVYDQQYLDRVEDRVGWYAERGYKVMLDMHQDVYSGAITPEGNSGNGAGAIGNGAPAWATYMDGLPVEPQPRWELYYIQPGVMRAFDNFWNTTGKHPELVEHYAKAWRAVADRFADNDAVVAYDLMNEPFGGSLQGPAFEAGPLAAMYQRTTDAIRQVDQDTWVCVAPQAIGVNQGLPSGLTKIDDPRAGQQRIAYCPHLYPLPLDIGDGHEGLARTLTDVTIDAWRANTAHTARVLGDVPIILGEFGLDTTLPGARDYIERVYGTAREMGAGVSYWSSDPGPWGPYLPDGTQTLLVDTLNKPYPRAVAGTPTEWSSTSDRLQLTIEPDAAITAPTEIYLPEAGFPGDVHVEGADVVGWDRQSRLLTVRTPADSGNVTVTVTPAA
rate of hydrolysis (in the absence of detergent): very low
pH of maximal kcat/Km (pH dependence of the hydrolysis activity): ~5 pH
Km [1]: ~2000 µM
kcat [1]: 1.5 s⁻¹

From patent publication US10294504B2, “Mutant endoglycoceramidases with enhanced synthetic activity” (La Jolla Pharmaceutical Company, priority 2004, dated 2019)
